Assay results as given in the Human Domainome abundance scans (Beltran et al. 2025).
± gives the uncertainty stated by the source.

Experiment: abundance fitness (aPCA) (normalised: wild type 0, dead -1); higher = more abundant; growth selection in yeast, the domain comes from the species named
Conditions: Homo sapiens
Substance “E3 ubiquitin-protein ligase NEDD4-like V229Q, Q96PU5” has an abundance fitness of -0.133 ± 0.1.
For “E3 ubiquitin-protein ligase NEDD4-like R208K, Q96PU5”, the abundance fitness was -0.028 ± 0.079.
“E3 ubiquitin-protein ligase NEDD4-like S225G, Q96PU5” gave an abundance fitness of -0.072 ± 0.068.
With “E3 ubiquitin-protein ligase NEDD4-like V229L, Q96PU5” the abundance fitness was 0.057 ± 0.056.
With “E3 ubiquitin-protein ligase NEDD4-like T219S, Q96PU5” the abundance fitness was -0.189 ± 0.086.
Substance “E3 ubiquitin-protein ligase NEDD4-like P193W, Q96PU5” has an abundance fitness of -0.359 ± 0.067.
“E3 ubiquitin-protein ligase NEDD4-like N216S, Q96PU5” gave an abundance fitness of 0.065 ± 0.058.
“E3 ubiquitin-protein ligase NEDD4-like P192H, Q96PU5” showed an abundance fitness of -0.1 ± 0.071.
“E3 ubiquitin-protein ligase NEDD4-like D228Q, Q96PU5” gave an abundance fitness of -0.277 ± 0.085.
Work on “E3 ubiquitin-protein ligase NEDD4-like K202A, Q96PU5” yielded an abundance fitness of -0.185 ± 0.06.
For “E3 ubiquitin-protein ligase NEDD4-like Y211E, Q96PU5”, the abundance fitness was -0.643 ± 0.058.
With “E3 ubiquitin-protein ligase NEDD4-like Q187D, Q96PU5” the abundance fitness was -0.167 ± 0.097.
Work on “E3 ubiquitin-protein ligase NEDD4-like V203Q, Q96PU5” yielded an abundance fitness of 0.019 ± 0.093.
Work on “E3 ubiquitin-protein ligase NEDD4-like R208A, Q96PU5” yielded an abundance fitness of 0.036 ± 0.062.
With “E3 ubiquitin-protein ligase NEDD4-like V212E, Q96PU5” the abundance fitness was -0.068 ± 0.057.
Substance “E3 ubiquitin-protein ligase NEDD4-like V212D, Q96PU5” has an abundance fitness of -0.458 ± 0.094.
“E3 ubiquitin-protein ligase NEDD4-like T218Q, Q96PU5” gave an abundance fitness of -0.218 ± 0.095.
Substance “E3 ubiquitin-protein ligase NEDD4-like K202D, Q96PU5” has an abundance fitness of -0.491 ± 0.064.
“E3 ubiquitin-protein ligase NEDD4-like E200D, Q96PU5” showed an abundance fitness of -0.346 ± 0.081.
In the case of “E3 ubiquitin-protein ligase NEDD4-like N215Y, Q96PU5”, the abundance fitness is reported as -0.173 ± 0.1.
With “E3 ubiquitin-protein ligase NEDD4-like L190N, Q96PU5” the abundance fitness was -0.031 ± 0.087.
“E3 ubiquitin-protein ligase NEDD4-like E201M, Q96PU5” gave an abundance fitness of -0.066 ± 0.11.
“E3 ubiquitin-protein ligase NEDD4-like R208F, Q96PU5” showed an abundance fitness of -0.289 ± 0.06.
In the case of “E3 ubiquitin-protein ligase NEDD4-like T209L, Q96PU5”, the abundance fitness is reported as -0.095 ± 0.073.
“E3 ubiquitin-protein ligase NEDD4-like R208Q, Q96PU5” showed an abundance fitness of 0.215 ± 0.09.
“E3 ubiquitin-protein ligase NEDD4-like R217N, Q96PU5” gave an abundance fitness of 0.051 ± 0.089.
“E3 ubiquitin-protein ligase NEDD4-like H186M, Q96PU5” showed an abundance fitness of -0.349 ± 0.1.
With “E3 ubiquitin-protein ligase NEDD4-like R217Q, Q96PU5” the abundance fitness was -0.016 ± 0.067.
With “E3 ubiquitin-protein ligase NEDD4-like S230D, Q96PU5” the abundance fitness was -0.023 ± 0.095.
“E3 ubiquitin-protein ligase NEDD4-like G207R, Q96PU5” gave an abundance fitness of -0.252 ± 0.051.
“E3 ubiquitin-protein ligase NEDD4-like S231K, Q96PU5” gave an abundance fitness of -0.273 ± 0.15.
“E3 ubiquitin-protein ligase NEDD4-like Y210I, Q96PU5” showed an abundance fitness of -0.379 ± 0.07.
Substance “E3 ubiquitin-protein ligase NEDD4-like V212S, Q96PU5” has an abundance fitness of -0.347 ± 0.071.
“E3 ubiquitin-protein ligase NEDD4-like L206Q, Q96PU5” gave an abundance fitness of 0.021 ± 0.091.
With “E3 ubiquitin-protein ligase NEDD4-like Q185H, Q96PU5” the abundance fitness was -0.034 ± 0.081.
For “E3 ubiquitin-protein ligase NEDD4-like G207V, Q96PU5”, the abundance fitness was -0.803 ± 0.056.
Work on “E3 ubiquitin-protein ligase NEDD4-like N215D, Q96PU5” yielded an abundance fitness of 0.015 ± 0.086.
For “E3 ubiquitin-protein ligase NEDD4-like L226G, Q96PU5”, the abundance fitness was -0.117 ± 0.057.
“E3 ubiquitin-protein ligase NEDD4-like G207Y, Q96PU5” showed an abundance fitness of -0.397 ± 0.06.
“E3 ubiquitin-protein ligase NEDD4-like S225P, Q96PU5” showed an abundance fitness of 0.018 ± 0.083.
Work on “E3 ubiquitin-protein ligase NEDD4-like P193E, Q96PU5” yielded an abundance fitness of -0.07 ± 0.087.
Work on “E3 ubiquitin-protein ligase NEDD4-like Y211K, Q96PU5” yielded an abundance fitness of -0.691 ± 0.097.
Work on “E3 ubiquitin-protein ligase NEDD4-like N215R, Q96PU5” yielded an abundance fitness of -0.193 ± 0.063.
“E3 ubiquitin-protein ligase NEDD4-like L226H, Q96PU5” showed an abundance fitness of -0.065 ± 0.065.
“E3 ubiquitin-protein ligase NEDD4-like Y211W, Q96PU5” showed an abundance fitness of -0.244 ± 0.078.
Substance “E3 ubiquitin-protein ligase NEDD4-like L190M, Q96PU5” has an abundance fitness of -0.407 ± 0.097.
Substance “E3 ubiquitin-protein ligase NEDD4-like K202T, Q96PU5” has an abundance fitness of -0.308 ± 0.083.
